The values that follow come from publication PMC10412584, “Molecular reshaping of phage-displayed Interleukin-2 at beta chain receptor interface to obtain potent super-agonists with improved developability profiles” (Communications Biology, 2023).

The chains are these.
B1: H9(K35E)/Fc (Fc fusion, human, UniProt P60568 21-153, looked up)
chain: APTSSSTKKTQLQLEHLLLDLQMILNGINNYKNPELTRMLTFKFYMPKKATELKHLQCLEEELKPLEEVLNLAQSKNFHFDPRDVVSNINVFVLELKGSETTFMCEYADETATIVEFLNRWITFCQSIISTLT
notes: human interleukin-2 with the mutations of H9 superkine and K35E; the first two aa (Ala-Pro) are present in the Fc constructs; Heavily aggregated in SEC; also called H9(K35)/Fc; fusion protein based on H9 superkine; source: HEK-293T adapted to suspension, transient transfection, purified from supernatant (protein A)
B2: 81DPQDLIE87 + I92L(K35E)/Fc (Fc fusion, human, UniProt P60568 21-153, looked up)
chain: APTSSSTKKTQLQLEHLLLDLQMILNGINNYKNPELTRMLTFKFYMPKKATELKHLQCLEEELKPLEEVLNLAQSKNFHLDPQDLIENINVLVLELKGSETTFMCEYADETATIVEFLNRWITFCQSIISTLT
notes: human interleukin-2 whose segment 81-87 reads DPQDLIE, with I92L; the first two aa (Ala-Pro) are present in the Fc constructs; source: HEK-293T adapted to suspension, transient transfection, purified from supernatant (protein A)
B3: 80FDPHDVVE87 + I92L + V93L(K35E)/Fc (Fc fusion, human, UniProt P60568 21-153, looked up)
chain: APTSSSTKKTQLQLEHLLLDLQMILNGINNYKNPELTRMLTFKFYMPKKATELKHLQCLEEELKPLEEVLNLAQSKNFHFDPHDVVENINVLLLELKGSETTFMCEYADETATIVEFLNRWITFCQSIISTLT
notes: the first two aa (Ala-Pro) are present in the Fc constructs; also called fusion protein derived from phage clone 1A; source: HEK-293T adapted to suspension, transient transfection, purified from supernatant (protein A)
B4: 81VPEDLIE87(K35E)/Fc (Fc fusion, human, UniProt P60568 21-153, looked up)
chain: APTSSSTKKTQLQLEHLLLDLQMILNGINNYKNPELTRMLTFKFYMPKKATELKHLQCLEEELKPLEEVLNLAQSKNFHLVPEDLIENINVIVLELKGSETTFMCEYADETATIVEFLNRWITFCQSIISTLT
notes: human interleukin-2 whose segment 81-87 reads VPEDLIE; the first two aa (Ala-Pro) are present in the Fc constructs; source: HEK-293T adapted to suspension, transient transfection, purified from supernatant (protein A)
B5: H9(K35E)/Fc in which F92 was replaced by the original Ile (Fc fusion, human, UniProt P60568 21-153, looked up)
chain: APTSSSTKKTQLQLEHLLLDLQMILNGINNYKNPELTRMLTFKFYMPKKATELKHLQCLEEELKPLEEVLNLAQSKNFHFDPRDVVSNINVIVLELKGSETTFMCEYADETATIVEFLNRWITFCQSIISTLT
notes: human interleukin-2 with the H9 mutations except that residue 92 is the original Ile; the first two aa (Ala-Pro) are present in the Fc constructs; also called F92I-containing protein; source: HEK-293T adapted to suspension, transient transfection, purified from supernatant (protein A)
B6: 80FDPEDVVE87 + I92L(K35E)/Fc (Fc fusion, human, UniProt P60568 21-153, looked up)
chain: APTSSSTKKTQLQLEHLLLDLQMILNGINNYKNPELTRMLTFKFYMPKKATELKHLQCLEEELKPLEEVLNLAQSKNFHFDPEDVVENINVLVLELKGSETTFMCEYADETATIVEFLNRWITFCQSIISTLT
notes: the first two aa (Ala-Pro) are present in the Fc constructs; source: HEK-293T adapted to suspension, transient transfection, purified from supernatant (protein A)
B7: H9(K35E)/Fc in which F92 was replaced by the phage-selected Leu (Fc fusion, human, UniProt P60568 21-153, looked up)
chain: APTSSSTKKTQLQLEHLLLDLQMILNGINNYKNPELTRMLTFKFYMPKKATELKHLQCLEEELKPLEEVLNLAQSKNFHFDPRDVVSNINVLVLELKGSETTFMCEYADETATIVEFLNRWITFCQSIISTLT
notes: human interleukin-2 with the H9 mutations except that residue 92 is Leu; the first two aa (Ala-Pro) are present in the Fc constructs; also called F92L-containing protein; source: HEK-293T adapted to suspension, transient transfection, purified from supernatant (protein A)
B8: 81VPEDLIE87 + I92L(K35E)/Fc (Fc fusion, human, UniProt P60568 21-153, looked up)
chain: APTSSSTKKTQLQLEHLLLDLQMILNGINNYKNPELTRMLTFKFYMPKKATELKHLQCLEEELKPLEEVLNLAQSKNFHLVPEDLIENINVLVLELKGSETTFMCEYADETATIVEFLNRWITFCQSIISTLT
notes: human interleukin-2 whose segment 81-87 reads VPEDLIE, with I92L; the first two aa (Ala-Pro) are present in the Fc constructs; source: HEK-293T adapted to suspension, transient transfection, purified from supernatant (protein A)
B9: 80VPPEDLIA87 + I92L(K35E)/Fc (Fc fusion, human, UniProt P60568 21-153, looked up)
chain: APTSSSTKKTQLQLEHLLLDLQMILNGINNYKNPELTRMLTFKFYMPKKATELKHLQCLEEELKPLEEVLNLAQSKNFHVPPEDLIANINVLVLELKGSETTFMCEYADETATIVEFLNRWITFCQSIISTLT
notes: as for B6
B10: 80FDPADVVE87 + I92L(K35E)/Fc (Fc fusion, human, UniProt P60568 21-153, looked up)
chain: APTSSSTKKTQLQLEHLLLDLQMILNGINNYKNPELTRMLTFKFYMPKKATELKHLQCLEEELKPLEEVLNLAQSKNFHFDPADVVENINVLVLELKGSETTFMCEYADETATIVEFLNRWITFCQSIISTLT
notes: as for B6
B11: 80VPPEDLIE87 + I92L(K35E)/Fc (Fc fusion, human, UniProt P60568 21-153, looked up)
chain: APTSSSTKKTQLQLEHLLLDLQMILNGINNYKNPELTRMLTFKFYMPKKATELKHLQCLEEELKPLEEVLNLAQSKNFHVPPEDLIENINVLVLELKGSETTFMCEYADETATIVEFLNRWITFCQSIISTLT
notes: the first two aa (Ala-Pro) are present in the Fc constructs; also called variant 2B further optimized by incorporating S87E; source: HEK-293T adapted to suspension, transient transfection, purified from supernatant (protein A)
B12: 81DPQDLIE87(K35E)/Fc (Fc fusion, human, UniProt P60568 21-153, looked up)
chain: APTSSSTKKTQLQLEHLLLDLQMILNGINNYKNPELTRMLTFKFYMPKKATELKHLQCLEEELKPLEEVLNLAQSKNFHLDPQDLIENINVIVLELKGSETTFMCEYADETATIVEFLNRWITFCQSIISTLT
notes: human interleukin-2 whose segment 81-87 reads DPQDLIE; the first two aa (Ala-Pro) are present in the Fc constructs; source: HEK-293T adapted to suspension, transient transfection, purified from supernatant (protein A)

The target in one assay is T1, recombinant fusion protein comprising human IL-2R beta subunit extracellular domain and mouse IgG2a Fc (human, UniProt P14784 27-240).
T1 construct: human IL-2 receptor beta subunit (CD122), extracellular domain; also called IL-2R beta/mFc; IL-2R beta ECD/mouse IgG2a Fc
T1 sequence (looked up): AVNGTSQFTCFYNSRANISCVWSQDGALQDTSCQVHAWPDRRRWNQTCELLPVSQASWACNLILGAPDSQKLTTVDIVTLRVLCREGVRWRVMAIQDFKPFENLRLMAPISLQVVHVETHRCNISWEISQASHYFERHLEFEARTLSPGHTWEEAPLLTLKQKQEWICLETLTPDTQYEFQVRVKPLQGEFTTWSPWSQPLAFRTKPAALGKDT
Nature of the assay: SPR; Biacore T200; IL-2R beta ECD/mouse IgG2a Fc amine-coupled to a CM5 chip; Fc-fusion proteins 1-800 nmol/L injected at 15 µL/min in PBS with 0.05% Tween 20; single-cycle mode; global fit to the 1:1 model. Particulars: both partners purified.
Usually koff stands for a measure of how fast the partners let go of each other. Turning to B1, the “fold decrease of KD against IL-2(K35E)/Fc” value was roughly 25 fold and the koff is roughly 0.0003 s⁻¹.

For the next assay, the target named is T1, recombinant fusion protein comprising …. Nature of the assay: ELISA; polyvinyl chloride plates coated with IL-2R beta ECD/mouse IgG2a Fc at 10 µg/mL in PBS; Fc-fusion proteins diluted in M-PBS, 1 h at RT; detected with anti-human IgG-HRP. Particulars: both partners purified. (In general: An ELISA detects its analyte on a solid surface through an enzyme-linked reagent.)
Regarding B2, the binding result is given as “binds”.

As to B3, the binding result is “binds”. On the same count and under the same terms, then B4, with “binds”; and B5, with “binds”. The same measure, in the same setting: with B6 the entry was “binds”; with B7, “binds”; with B8, “binds”. On the same count and under the same terms, then B9, with “binds”; and B10, with “binds”; and B11, with “binds”. Consider B12, for which the binding result is “binds”.
